B1: LINE1-mini (parent)
chain: GGCAGAGCUCAACACAGCGUGGCAAAGUGGCUGUGGCUAGACUGCC

The data set covers variants of B1. The experiment in a line: self-cleavage, relative activity (ratio to wild type); higher = more cleavage; in vitro, sequencing; the parent is a self-cleaving ribozyme.
With A12C G22A, the self-cleavage is 0.03. Then A12C G22U, with 0.02; and A12C G22C, with 0.02. A12C U28C: the self-cleavage turned out to be 0.02. For A12C U28G, the self-cleavage was 0.02. Regarding A12C U28A, the self-cleavage was found to be 0.02. Turning to A12C G21U, the self-cleavage came out at 0.03. As for A12C G21C, the self-cleavage is 0.03.

On to A12C G21A, for which the self-cleavage was 0.02. Then A12G A24G, with 0.03; and A12G A24U, with 0.03.

For the variant A12G A24C, the self-cleavage was found to be 0.02.

As for A12C U32G, the self-cleavage worked out at 0.06.

In the case of A12C U32C, the self-cleavage was found to be 0.05.

With A12C U32A, the self-cleavage was 0.03. As for A11U U20G, the self-cleavage worked out at 0.16. As to A11U U20C, the self-cleavage was determined as 0.07. As to A11U U20A, the self-cleavage was found to be 0.07. For the variant A12G C15A, the self-cleavage amounted to 0.02. Regarding A12G C15U, the self-cleavage is 0.03. On to A12G C15G, for which the self-cleavage was determined as 0.03.

Take A12G C13G: the self-cleavage is 0.04. A12G C13U: the self-cleavage was determined as 0.06.

In the case of A12G C13A, the self-cleavage was 0.07. In the case of A12C G19A, the self-cleavage was 0.02. For A12C G19U the value was 0.03.

As for A12C G19C, the self-cleavage was 0.02.

For the variant A12C G17C, the self-cleavage is 0.02. For A12C G17U the value was 0.02; for A12C G17A, 0.01. As to A12C C46G, the self-cleavage was 0.05. A12C C46U: the self-cleavage amounted to 0.02. With A12C C46A, the self-cleavage stood at 0.02. For A12C C37G, the self-cleavage was determined as 0.02.

For the variant A12C C37U, the self-cleavage was found to be 0.02.

For A12C C37A, the self-cleavage is 0.02. Turning to A12G C18U, the self-cleavage worked out at 0.04.

Take A12G C18G: the self-cleavage was found to be 0.04.

As to A12G C18A, the self-cleavage came out at 0.03.

Regarding A12G A41G, the self-cleavage was 0.03. Take A12G A41C: the self-cleavage came to 0.02. A12G A41U: the self-cleavage was 0.04. With A11U U38A, the self-cleavage amounted to 0.07. Consider A11U U38G, for which the self-cleavage stood at 0.01.

As for A11U U38C, the self-cleavage turned out to be 0.05. For A12C A39U, the self-cleavage turned out to be 0.02.

With A12C A39C, the self-cleavage came to 0.03. As to A12C A39G, the self-cleavage is 0. On to A12C A24G, for which the self-cleavage is 0.04.

On to A12C A24C, for which the self-cleavage came to 0.01. With A12C A24U, the self-cleavage is 0.03.

Consider A12C A41C, for which the self-cleavage is 0.02. As for A12C A41U, the self-cleavage turned out to be 0.03.

As to A12C A41G, the self-cleavage came out at 0.03. As to A12C C31G, the self-cleavage came to 0.01. Regarding A12C C31U, the self-cleavage was 0.02. In the case of A12C C31A, the self-cleavage was found to be 0.03. For A12C G44U, the self-cleavage was found to be 0.03. A12C G44A: the self-cleavage worked out at 0.03.

With A12C G44C, the self-cleavage was 0.05. With A12C C18A, the self-cleavage was found to be 0.03.

Turning to A12C C18U, the self-cleavage was found to be 0.04. As to A12C C18G, the self-cleavage was found to be 0.02. A12C G30U: the self-cleavage amounted to 0.01. Turning to A12C G30A, the self-cleavage came to 0.03. Turning to A12C G30C, the self-cleavage was determined as 0.04. Turning to A12C A26G, the self-cleavage is 0.01. On to A12C A26C, for which the self-cleavage stood at 0.02.

For the variant A12C A26U, the self-cleavage was 0.03. Turning to A12C C23G, the self-cleavage amounted to 0.02.

With A12C C23A, the self-cleavage is 0.02. As for A12C C23U, the self-cleavage stood at 0.08. For the variant A12C G35U, the self-cleavage amounted to 0.03. For the variant A12C G35A, the self-cleavage is 0.04. For A12C G35C, the self-cleavage is 0.03. Then A11U U32A, with 0.03; and A11U U32C, with 0.04; and A11U U32G, with 0.03.

Turning to A12C U20C, the self-cleavage was determined as 0.01. With A12C U20A, the self-cleavage came out at 0.03. Consider A12C U20G, for which the self-cleavage turned out to be 0.01. Consider A12C A25U, for which the self-cleavage came out at 0.01. For A12C A25C the value was 0.03; for A12C A25G, 0.02. Then A12C C13G, with 0.04; and A12C C13A, with 0.08; and A12C C13U, with 0.01.

As for A11U G40U, the self-cleavage came out at 0.04. Turning to A11U G40A, the self-cleavage came to 0.03. For A11U G40C the value was 0.02.

With A12C G33U, the self-cleavage was 0.02. For A12C G33A, the self-cleavage worked out at 0.05. Turning to A12C G33C, the self-cleavage worked out at 0.01.

Consider A12C U38C, for which the self-cleavage amounted to 0.04. On to A12C U38A, for which the self-cleavage amounted to 0.01.

Regarding A12C U38G, the self-cleavage was 0.03. A11U U43G: the self-cleavage is 0.

For the variant A11U U43A, the self-cleavage turned out to be 0.02.

In the case of A11U U43C, the self-cleavage came to 0.04. As for A12G A14U, the self-cleavage was determined as 0.03. For the variant A12G A14C, the self-cleavage came to 0.04.

On to A12G A14G, for which the self-cleavage was 0.04.

Take A12G A25G: the self-cleavage is 0.03. Take A12G A25U: the self-cleavage was 0.03. For A12G A25C, the self-cleavage was 0.16. For A12C A16C the value was 0.03. Take A12C A16G: the self-cleavage came out at 0.02.

On to A12C A16U, for which the self-cleavage was determined as 0.01. Regarding A11U G36A, the self-cleavage is 0.02. As to A11U G36C, the self-cleavage is 0.03. Regarding A11U G36U, the self-cleavage amounted to 0.03.

In the case of A12C A14C, the self-cleavage was 0.02. In the case of A12C A14U, the self-cleavage turned out to be 0.05. For A12C A14G the value was 0.04. Turning to A12C G36C, the self-cleavage is 0.02.

In the case of A12C G36U, the self-cleavage turned out to be 0.03. Turning to A12C G36A, the self-cleavage is 0.2. Consider A12G C31A, for which the self-cleavage worked out at 0.16. For A12G C31G, the self-cleavage stood at 0.04. Consider A12G C31U, for which the self-cleavage was found to be 0.05.

For the variant A11U U34C, the self-cleavage was determined as 0.05. Take A11U U34G: the self-cleavage is 0.02. Consider A11U U34A, for which the self-cleavage amounted to 0.04. On to A12G A16C, for which the self-cleavage came to 0.06. Turning to A12G A16U, the self-cleavage was determined as 0.05. For A12G A16G, the self-cleavage turned out to be 0.03. Take A12C G29A: the self-cleavage was determined as 0.01. Take A12C G29C: the self-cleavage was 0.01. As for A12C G29U, the self-cleavage amounted to 0.02. For A11U U28G, the self-cleavage was 0.12. A11U U28C: the self-cleavage was 0.22.

Take A11U U28A: the self-cleavage amounted to 0.11. Then A12C C15G, with 0.03; and A12C C15U, with 0.03; and A12C C15A, with 0.03.

As for A12G C23G, the self-cleavage was 0.05. Then A12G C23A, with 0.02; and A12G C23U, with 0.03; and A12C G27U, with 0.02.

Turning to A12C G27C, the self-cleavage was 0.03. As for A12C G27A, the self-cleavage turned out to be 0.03.

For the variant A12C C42G, the self-cleavage turned out to be 0.02. Turning to A12C C42U, the self-cleavage amounted to 0.01. Consider A12C C42A, for which the self-cleavage was determined as 0.03. For the variant A12C, the self-cleavage is 0.03.

Regarding A12G, the self-cleavage worked out at 0.04.

In the case of A12C U43G, the self-cleavage was 0.01. For the variant A12C U43C, the self-cleavage worked out at 0.01. For A12C U43A the value was 0.03.

Consider A12G A26C, for which the self-cleavage came out at 0.03. Consider A12G A26G, for which the self-cleavage came out at 0.03. On to A12G A26U, for which the self-cleavage was found to be 0.03. For A12C U34A, the self-cleavage was 0.02. Turning to A12C U34C, the self-cleavage was 0.03.

Take A12C U34G: the self-cleavage amounted to 0.02.

For the variant A11U G44U, the self-cleavage is 0.05. Regarding A11U G44C, the self-cleavage stood at 0.03. Take A11U G44A: the self-cleavage is 0.05. For A12C G40A the value was 0.04. For the variant A12C G40U, the self-cleavage worked out at 0.03.

With A12C G40C, the self-cleavage was found to be 0.03. On to A12G A39U, for which the self-cleavage was determined as 0.08.

Take A12G A39G: the self-cleavage was found to be 0.01. On to A12G A39C, for which the self-cleavage worked out at 0.04. For A12C C45G the value was 0.07; for A12C C45U, 0.03; for A12C C45A, 0.03.

For the origin of these results see the RNAGym collection of RNA variant scans (doi:10.7554/elife.90254).
